Laboratory results: article PMC7598594 (Toxins, 2020)

B1: JLF-H5 (VHH)
VHH: QVQLVESGGGSVQPGGSLRLSCVASGFTFTNYAMAWVRQVSGKGLEGVAAISSEGFIYIPDSVKGRFTISRDNAKNTVYLQMDNLQSEDTAIYHCAAVDWKRVAAMNSYNMDYWGKGTPVTVSA
notes: source: E. coli, purified
B2: JSI-F6 (VHH)
VHH: SGGGLVQAGGSLRVSCAASGRTFSTYAMGWFRQAPGKEREFVAAITKSGDYAYYADAVKGRFTISRDNAKNTVSLQMNSLKDEDTAVYYCAAHRSPLYSASVYDRDYDYWGQGTQVTVSS
notes: source: E. coli, purified
B3: JSI-G9 (VHH)
VHH: SGGGMVQAGGSLRLSCAASGRTASLDGMGWFRQAPGKEREFVGSINWRIGTTYYIDSVQGRFTISRDNARNTVYLQMISLKPEDTAVYYCAARLRRTDLISSPASYEYWGHGTQVTVSS
notes: source: E. coli, purified
B4: JSI-A4 (VHH)
VHH: SGGGLVQAGGSLRLSCAASGLTFSDTAVGWFRQAPGKEREFVAAAVIWSGVNTRYADSVRGRFTISRDSAKNTVYLQMNTLKPEDTAIYYCAAGRGAAAFPTDRSQYVYWGQGTQVTVSS
notes: source: E. coli, purified
B5: JSI-C7 (VHH)
VHH: SGGGLMQAGGSLRLACAASGRPFSTYFMGWFRQAPGKERDFVAVIDWSDGSTDYADSVKGRFTISRDNAKNTVYLQMNSLKPEDTAVYYCAARGSYLYTWPLEPDEYDYWGQGTQVTVSS
notes: source: E. coli, purified
B6: JSI-H9 (VHH)
VHH: SGGGSVQAGGSLGLTCQGSGDAVRRGWFRQAPGKEREFVAAITSYGGTTFYADSVKGRFTVSRDNAKNTVYLQMISLKPEDTAVYYCAAASRPTGWPYEYDVWGQGTQVTVSS
notes: source: E. coli, purified
B7: JLG-G12 (VHH)
VHH: QLQLVETGGGLVQAGGSLRLSCAASGRTFSSYAVGWFRQAPGKEREFVAAISWSGSYAYYADSVKGRFTISRDNAKNTVYLQMNSLKPEDTAVYYCNGDLEGYSNHETGDYWGQGTQVTVSS
notes: source: E. coli, purified
B8: JLE-G6 (VHH)
VHH: QLQLVETGGGLVKPGGSLRLSCVVSGFTFDDYRMAWVRQAPGKELEWVSSIDSWSINTYYEDSVKGRFTISTDNAKNTLYLQMSSLKPEDTAVYYCAAEDRLGVPTINAHPSKYDYNYWGQGTQVTVSS
notes: source: E. coli, purified
B9: JSI-F2 (VHH)
VHH: SGGGLVQAGGSLRLSCAASGGTVSKYPMGWFRQAPGQEREFVAALSRDTDYTYYADSVKGRFTISRDNAKNTVYLQMNSLKREDTALYYCAAGSTDLKYSASVYADDYDYWGQGTQVTVSS
notes: source: E. coli, purified

Assays:
Experiment in all cases: ELISA
Conditions in all cases: both partners purified
[1] = target: T1, light chain of BoNT/E1 (LC/E) (Clostridium botulinum, BoNT/E subtype …, UniProt Q00496)
T1 construct: source: E. coli BL21(DE3), purified (Ni-NTA, Streptactin, SEC)
T1 sequence (Q00496 2-403): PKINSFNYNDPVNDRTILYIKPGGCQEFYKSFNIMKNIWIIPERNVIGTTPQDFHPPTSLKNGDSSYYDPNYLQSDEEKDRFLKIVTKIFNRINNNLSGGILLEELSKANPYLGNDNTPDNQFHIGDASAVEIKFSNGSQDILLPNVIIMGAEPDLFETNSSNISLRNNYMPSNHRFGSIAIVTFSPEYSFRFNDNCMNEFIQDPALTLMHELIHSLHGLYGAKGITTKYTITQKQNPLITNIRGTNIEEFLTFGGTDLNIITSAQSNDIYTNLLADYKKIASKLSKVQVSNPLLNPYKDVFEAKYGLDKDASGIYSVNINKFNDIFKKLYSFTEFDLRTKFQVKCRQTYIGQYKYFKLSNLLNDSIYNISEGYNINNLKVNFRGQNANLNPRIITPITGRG

[2] = target: T1, light chain of BoNT/E1 (LC/E); remark: listed apart in the source
[3] = target: T2, carboxyl terminal domain of the BoNT/E heavy chain (HCE) (Clostridium botulinum, BoNT/E (subtype …))
[4] = target: T2, carboxyl terminal domain of the BoNT/E …; remark: listed apart in the source

| Binder | binding result [2] | also measured |
| --- | --- | --- |
| B1 |  | EC50 [1]: 10 nM |
| B2 | no binding (tested: 125 nM) | EC50 [3]: 3 nM |
| B3 | no binding (tested: 125 nM) |  |
| B4 | no binding (tested: 125 nM) |  |
| B5 | no binding (tested: 125 nM) |  |
| B6 | no binding (tested: 125 nM) |  |
| B7 |  | EC50 [1]: 2 nM |
| B8 |  | EC50 [4]: 3 nM |
| B9 | no binding (tested: 125 nM) | EC50 [3]: 2 nM |
